In patent US20040091487A1 (ALBERT EINSTEIN COLLEGE OF MEDICINE OF YESHIVA UNIVERSITY, published 2004):
Numbering of substitutions follows the chain as printed.

T1: GAL4AC-IN-2 (HIV-2, UniProt P04584 1172-1464)
T1 construct: domain: integrase
T1 sequence: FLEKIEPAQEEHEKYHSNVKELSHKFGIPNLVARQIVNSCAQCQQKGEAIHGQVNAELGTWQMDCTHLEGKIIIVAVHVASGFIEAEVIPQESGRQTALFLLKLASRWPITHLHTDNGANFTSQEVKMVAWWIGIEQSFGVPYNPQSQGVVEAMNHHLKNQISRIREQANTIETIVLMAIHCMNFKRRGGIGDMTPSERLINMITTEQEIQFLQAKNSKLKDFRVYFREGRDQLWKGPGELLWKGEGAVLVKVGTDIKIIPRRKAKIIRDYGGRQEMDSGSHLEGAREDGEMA

B1: GAL4-AC fusion of S6 mutant E3 (other)
chain: PEVLVPIRLDMEIDGQKLRDAFTWNMNEKLMTPEMFSEILCGDLDLNPLTFVPAIASAIRQQIESYPTDSILEDQSDQRVIIKLNIHVGNISLVDQFEWDMSEKENSPEKFA
notes: also called pGADNot-E3
B2: GAL4-AC fusion of S6 mutant E10 (other)
chain: B1 chain with G42D, D45G
B3: GAL4-AC fusion of S6 mutant E4 (other)
chain: B1 chain with T32A, G42D
B4: GAL4AC (other, UniProt P04386 768-881, looked up)
chain: ANFNQSGNIADSSLSFTFTNSSNGPNLITTQTNSQALSQPIASSNVHDNFMNNEITASKIDDGNNSKPLSPGWTDQTAYNAFGITTGMFNTTTMDDVYNYLFDDEDTPPNPKKE
notes: Negative control of the two-hybrid assay; also called GAL4AC alone
B5: LexADB (other, UniProt P0A7C2 1-87, looked up)
chain: MKALTARQQEVFDLIRDHISQTGMPPTRAEIAQRLGFRSPNAAEEHLKALARKGVIEIVSGASRGIRLLQEEEEGLPLVGRVAAGEP
notes: Negative control of the two-hybrid assay; also called LexADB alone

Tests used:
LexADB-IN-1 [1] = molecular target: T2, LexADB-IN-1 (HIV-1, UniProt P0A7C2 1-87; P04585 1148-1435); assay: reverse yeast two-hybrid, X-Gal staining
T2 construct: Yeast two-hybrid fusion

LexADB-IN-1 [2] = molecular target: T2, LexADB-IN-1; assay: yeast two-hybrid, β-Gal staining
From the text: (§1) To determine the specificity of interaction of INI1 with retroviral INs, we first examined the interaction of various INs with INI1/hSNF5 using the yeast two-hybrid system. […] The transformants were stained with X-GAL to detect positive interactions between the various retroviral INs and INI1/hSNF5.

LexADB-INI1/hSNF5 = molecular target: T3, LexADB-INI1/hSNF5 (human, UniProt P0A7C2 1-87 (Escherichia coli entry), limits assumed); assay: yeast two-hybrid, β-Gal staining
T3 construct: also called pSH2-INI1
From the text: as §1

GAL4AC-IN-1 = molecular target: T4, GAL4AC-IN-1 (HIV-1, UniProt P04585 1148-1435); assay: yeast two-hybrid, β-Gal staining
T4 construct: domain: integrase
From the text: as §1

GAL4AC-IN-2 = molecular target: T1, GAL4AC-IN-2; assay: yeast two-hybrid, β-Gal staining
From the text: as §1

GAL4AC = molecular target: B4; assay: yeast two-hybrid, β-Gal staining
From the text: as §1

B1
binding result (LexADB-IN-1 [1]): no binding

B2
binding result (LexADB-IN-1 [1]): no binding

B3
binding result (LexADB-IN-1 [1]): no binding

B4
binding result (LexADB-IN-1 [2]): no binding | binding result (LexADB-INI1/hSNF5): no binding

B5
binding result (GAL4AC-IN-1): no binding | binding result (GAL4AC-IN-2): no binding | binding result (GAL4AC): no binding
